# Measured values: patent US11584938B2, “Plant EPSPS mutant containing L195P and S247G mutations and encoding gene and use thereof” (GEVOTO LLC, priority 2017, dated 2023)
# Test system: transgenic rice plants
# Test: glyphosate resistance of the EPSPS mutant in transgenic rice plants sprayed with Roundup 41% ammonium glyphosate
# Assay type: in vivo, rice (Nipponbare)
# Text: A method for detecting the glyphosate resistance of G1 (SEQ ID NO: 4) provided in Example 1, G3 (SEQ ID NO: 8) provided in Example 2, G4 (SEQ ID NO: 10) provided in Example 3, the soybean EPSPS mutant G5 (SEQ ID NO: 12) provided in Example 4, T1 (SEQ ID NO: 16) provided in Example 5, T3 (SEQ ID NO: 20) provided in Example 6, T4 (SEQ ID NO: 22) provided in Example 7, T5 (SEQ ID NO: 24) provided in Example 8, the wheat EPSPS mutant T6 (SEQ ID NO: 26) provided in Example 9, R1 (SEQ ID NO: 30) provided in Example 10, R3 (SEQ ID NO: 34) provided in Example 11, R4 (SEQ ID NO: 36) provided in Example 12, R5 (SEQ ID NO: 38) provided in Example 13, and the rice EPSPS mutant R6 (SEQ ID NO: 40) provided in Example 14 in the transgenic rice is as follows:
# The plasmids (containing the EPSPS mutation gene) of the monoclonal resistant bacteria of pADV5-EPSPS in Examples 1-7 were extracted by a conventional method, followed by double enzyme digestion by Pac1 and BstEII, the small fragments were collected, and then the small fragments were ligated by using T4 DNA ligase, to the pGVP1 vectors that had undergone the same double enzyme digestion, to obtain a pGVP1-EPSPS vector having a structure as shown in FIG. 23.
# EHA105 (Agrobacterium tumefaciens) competent cells were transformed by the pGVP1-EPSPS vector, and single colonies were picked up to perform bacterial colony PCR detection to identify positive strains; then the positive strains were inoculated into 1 mL of YEP culture medium containing 50 μg·mL^−1 kanamycin and 50 μg·mL^−1 rifampin to propagate, and then preserved at −80° C., or used for subsequent experiment.
# 400 μl of bacterium containing the target gene vector preserved at −80° C. was added to a culture dish of solid culture media containing YEP+50 μg/mL rifampin+50 μg/mL kanamycin, and cultured in the dark at 28° C. for 24 hours, then this bacterium was added to an infection culture medium, and this bacterial solution was adjusted to OD=0.2 as an infection liquid.
# Sterilization and pre-culturing: mature rice (Nipponbare) seeds were manually shelled, and full seeds without bacterial plaque were selected, and sterilized according to following steps: putting the seeds into a 50 ml sterile centrifuge tube, adding 70% alcohol for disinfection for 30 seconds, pouring out the alcohol, and cleaning the seeds once with sterile water; adding 10-20 ml of 2.6% sodium hypochlorite solution for soaking and sterilizing for 20 minutes, pouring out the sodium hypochlorite solution, and soaking and cleaning the seeds with sterile water for 6-7 times, 3 minutes each time.
# Induction and subculturing: the seeds were put on sterile filter paper for drying, and mature embryos were put in an induction culture medium with 12 embryos in each dish; the culture dishes were sealed with a sealing film after the operation was finished, the mature embryos were cultured in the dark at 30° C. for 21-28 days, calluses were transferred into a fresh culture medium, and continuously cultured for about 7-14 days, and spherical calluses with a size of 1-2 mm were taken as infection receptors.
# the calluses were inoculated into a centrifuge tube or a culture cup, the prepared Agrobacterium tumefaciens suspension liquid was added for infection for 10 minutes, wherein the calluses were shaken several times; the bacterial solution was poured out, the calluses were taken out, and placed on sterile filter paper to suck out the surface bacterial solution (about 30 minutes); and the calluses were put on sterile filter paper in a culture dish, and cultured in the dark at 25° C. for 2-3 days.
# Recovery culturing: the calluses having undergone co-culturing were inoculated in a recovery culture medium, and cultured in the dark at 30° C. for 5-7 days. First round of screening: the calluses were transferred to screening culture media 1 (S1) and cultured in the dark at 30° C. for 14 days. […]
# [1] = 1× dosage 1060 g/hectare glyphosate sprayed, recorded on 10th day
# [2] = 2× dosage 2120 g/hectare sprayed to plants surviving 1×, recorded 10 days later
# [3] = 5× dosage 5300 g/hectare sprayed to plants surviving 2×, recorded 10 days later
# [4] = 20× dosage 21200 g/hectare sprayed to plants surviving 5×, recorded 10 days later
Molecule,%++&+++ (percentage of plant having medium and high glyphosate resistance to the total number of plants observed) [1],number of plants denoted by + (low glyphosate resistance) [1],number of plants denoted by ++ (medium glyphosate resistance) [1],number of plants denoted by +++ (high glyphosate resistance) [1],number of plants denoted by − (no glyphosate resistance) [1],"glyphosate resistance / survival of the rice transformed by the EPSPS, in words (1× glyphosate dosage)",%++&+++ (percentage of plant having medium and high glyphosate resistance to the total number of plants observed) [2],number of plants denoted by + (low glyphosate resistance) [2],number of plants denoted by ++ (medium glyphosate resistance) [2],number of plants denoted by +++ (high glyphosate resistance) [2],number of plants denoted by − (no glyphosate resistance) [2],&++&+++ (percentage of plant having medium and high glyphosate resistance to the total number of plants observed) [3],number of plants denoted by + (low glyphosate resistance) [3],number of plants denoted by ++ (medium glyphosate resistance) [3],number of plants denoted by +++ (high glyphosate resistance) [3],number of plants denoted by − (no glyphosate resistance) [3],&++&+++ (percentage of plant having medium and high glyphosate resistance to the total number of plants observed) [4],number of plants denoted by + (low glyphosate resistance) [4],number of plants denoted by ++ (medium glyphosate resistance) [4],number of plants denoted by +++ (high glyphosate resistance) [4],other results
"G4: soybean EPSPS mutant, SEQ ID NO: 10, mutation S265(247)G (protein) MAAAEKPSTAPEIVLEPIKDISGTITLPGSKSLSNRILLLAALSEGTTVVDNLLYSEDIHYMLGALRTLGLRVEDDQTTKQAIVEGCGGLFPTIKESKDEINLFLGNAGTAMRPLTAAVVAAGGNASYVLDGVPRMRERPIGDLVAGLKQLGADVDCFLGTNCPPVRVNGKGGLPGGKVKLSGSVSSQYLTALLMAAPLALGDVEIEIVDKLISVPYVEMTLKLMERFGVSVEHSGDWDKFLVHGGQKYKSPGNAFVEGDASSAGYFLAGAAVTGGTITVNGCGTSSLQGDVKFAEVLEKMGAKVTWSENSVTVTGPPQDSSGQKVLQGIDVNMNKMPDVAMTLAVVALFANGQTTIRDVASWRVKETERMIAICTELRKLGATVEEGPDYCVITPPEKLNVTAIDTYDDHRMAMAFSLAACGDVPVTIKDPGCTRKTFPDYFEVLERFTRH",26.5%,23,9,4,13,obviously superior to that of the rice seedlings transformed by G0,2.0%,25,01,0,25,0.0%,7,0,0,44,0.0%,0,0,0,"glyphosate resistance / survival of the rice transformed by the EPSPS, in words (2× glyphosate dosage): some of the transgenic rice seedlings transformed by G4 still survived; glyphosate resistance / survival of the rice transformed by the EPSPS, in words (5× glyphosate dosage): some of the transgenic rice seedlings transformed by G4 still survived; number of plants denoted by − (no glyphosate resistance) [4]: 51"
"G5: soybean EPSPS mutant, SEQ ID NO: 12, mutations S265(247)G and P114(101)S (protein) MAAAEKPSTAPEIVLEPIKDISGTITLPGSKSLSNRILLLAALSEGTTVVDNLLYSEDIHYMLGALRTLGLRVEDDQTTKQAIVEGCGGLFPTIKESKDEINLFLGNAGTAMRSLTAAVVAAGGNASYVLDGVPRMRERPIGDLVAGLKQLGADVDCFLGTNCPPVRVNGKGGLPGGKVKLSGSVSSQYLTALLMAAPLALGDVEIEIVDKLISVPYVEMTLKLMERFGVSVEHSGDWDKFLVHGGQKYKSPGNAFVEGDASSAGYFLAGAAVTGGTITVNGCGTSSLQGDVKFAEVLEKMGAKVTWSENSVTVTGPPQDSSGQKVLQGIDVNMNKMPDVAMTLAVVALFANGQTTIRDVASWRVKETERMIAICTELRKLGATVEEGPDYCVITPPEKLNVTAIDTYDDHRMAMAFSLAACGDVPVTIKDPGCTRKTFPDYFEVLERFTRH",69.1%,14,18,49,16,had certain resistance to glyphosate,34.0%,43,23,10,21,7.2%,53,6,1,37,0.0%,24,0,0,"glyphosate resistance / survival of the rice transformed by the EPSPS, in words (2× glyphosate dosage): some of the rice seedlings containing the soybean EPSPS mutants G3 and G5 still survived; glyphosate resistance / survival of the rice transformed by the EPSPS, in words (5× glyphosate dosage): some of the rice seedlings containing the soybean EPSPS mutants G3 and G5 still survived; number of plants denoted by − (no glyphosate resistance) [4]: 73; glyphosate resistance / survival of the rice transformed by the EPSPS, in words (20× glyphosate dosage): some of the rice seedlings containing the soybean EPSPS mutants G3 and G5 still survived"
"T0: wild-type wheat EPSPS, amino acid sequence SEQ ID NO: 14; control (protein, listed as Triticum aestivum) MATSVAAPAAPAGAEEVVLQPIREISGAVQLPGSKSLSNRILLLSALSEGTTVVDNLLNSEDVHYMLEALEALGLSVEADKVAKRAVVVGCGGRFPVEKDAKEEVKLFLGNAGTAMRPLTAAVVAAGGNATYVLDGVPRMRERPIGDLVVGLQQLGADVDCFLGTNCPPVRINGKGGLPGGKVKLSGSISSQYLSSLLMAAPLALEDVEIEIIDKLISVPYVEMTLKLMEHFGVTAEHSDSWDRFYIKGGQKYKSPGNAYVEGDASSASYFLAGAAITGGTVTVEGCGTTSLQGDVKFAEVLEMMGAKVTWTDTSVTVTGPPRQPFGRKHLKAVDVNMNKMPDVAMTLAVVALFADGPTAIRDVASWRVKETERMVAIRTELTKLGATVEEGPDYCIITPPEKLNITAIDTYDDHRMAMAFSLAACAEVPVTIRDPGCTRKTFPNYFDVLSTFVKN",0.0%,1,0,0,32,"had no resistance, one was seriously damaged, and all the others died",0.0%,0,0,0,33,0.0%,0,0,0,33,0.0%,0,0,0,number of plants denoted by − (no glyphosate resistance) [4]: 33
